# Results: the supplement of paper PMC12636428
# Tested on: Saccharomyces cerevisiae
# Assay: transcriptional activation domain activity (GFP:mCherry ratio, weighted mean of sorted bins, harmonized to initial dataset scale) (arbitrary fluorescence ratio units); higher = stronger transcriptional activation
# Conditions: beta-estradiol 1 µM; induction time 4 h
# In short: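 Yeast diploids with a GFP reporter received barcoded protein tiles, fused to an estradiol-inducible synthetic transcription factor, at the URA3 locus. Cultures were diluted 1:5 into SC holding 1 uM beta-estradiol, incubated 4 hours at 30 °C, sorted into 8 bins on GFP:mCherry ratio, and sequenced for barcodes, with tiles under 50 reads discarded. Activation activity values come from the read-weighted mean of bin median fluorescence, averaged across barcodes and linearly placed on the initial dataset scale.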
sequence,measurement,value
MDLVLCIGLFGHIPYHLQYSLPFVSFFFSHNIVHYSEMHYFGVVNSGILWLGF,transcriptional activation domain activity,63300
MALPVIFLFFLHVNILLLCRRFLLVFFLLLVFFLLLVFFFLLLVFFLLLVFLL,transcriptional activation domain activity,66200
GTEYEIGRPSDEEVTITRMLDKVLRRSDAVDKESLCIVAGQRVWHLRLTLHCL,transcriptional activation domain activity,68500
SFSLLALSFFFLHVLFSLIIAPCVWFWFFSWLWFWLDLSSPRTYCIHIWLIHP,transcriptional activation domain activity,39300
MQGGRLVIYLYYFLMEVFNVLFFLFLFRCWSLLPSALGGGLCYLFLVWGLLFC,transcriptional activation domain activity,67000
MDAVSDAARESPDSERGAESEAKRRKVRKGTRSCWECKRRKIRCSFSTASDSV,transcriptional activation domain activity,38000
EQWECTKLVLFSHFTIELPIIWLFHPVAEALGMTTYQVPFPSLQKMAIQIFLF,transcriptional activation domain activity,39400
LRLVIENIQKYGNLVCLTCHDFRRKDLLLGVGLYFLIPCFLWVALSIELVAAR,transcriptional activation domain activity,63600
RYLRHIKNIVFVLVLLNYWSKLYNTVLIGGPVRAVHDFKTYLIRIVFRQLRRL,transcriptional activation domain activity,47300
RDWRYVPEYVMRICRAHHADKPSVQMLVRKCFLEHIVNLTFTSFKALMSSKMS,transcriptional activation domain activity,42700
FFRRALNFLFDIALVPMIVCSSYAIFEVPSNVFLKRLRPSLWLSLLMLLWGIM,transcriptional activation domain activity,69000
NSFPKECEVVHEELRKLTHLVSALPREGLLYHGRLILRYLETVVCACLIMFDG,transcriptional activation domain activity,71100
ESASAAEEPAAKSKRGKKSQAEPEEEELSAVDEEHEPAPKSKRSKKSKAAVET,transcriptional activation domain activity,13800
QLKVVRITFSGLGAVALTICPCTPVVEQLLQAVHLKVLYLVKELFVCIPPNTS,transcriptional activation domain activity,48500
SFSSYSSLPSFPSFPYFPSFPFLPFLPFSCVLFLLFLPFLHFLLLPSFPFFYL,transcriptional activation domain activity,70900
EVETRYTLAIELFQPILKVLVDFESDDLKFGFLVAWLVGLYRRLWELCVFKYI,transcriptional activation domain activity,58900
KKKSSRKRDEEDKERSLRKHSRHHKSRRKRSRERSESPESSRHRHRHKKSSSS,transcriptional activation domain activity,17600
CIGAMVLIVLWAGGVCILVLVMCIPLEGVWDRRVNAKCIPHMTVMWYFNGVFN,transcriptional activation domain activity,62900
KGKGRENVPESESESEEDGDSSPPKAPVRGARGRGRGASRGRGRGRAPAPAAA,transcriptional activation domain activity,< 6570
SIRVILLNLGLSNGLETIPYGLISIIYQSKYQSFAYTLLFFSNLFTYSLWYVV,transcriptional activation domain activity,61200
RRRGGRGAGEGGEGEQEKGEGEQEKGEGEQERGGKGSRRRGGRGAGEGGEGEQ,transcriptional activation domain activity,13900
MRLVYFCAGIYFLVADLVFSLFLFSFSSLLTLFFSPFFSLSLGLTLLEIQFTF,transcriptional activation domain activity,51800
MITYILRLGFDYLPPLALWIAIVLVHYTYVCCFLVVACENTCRWHMVQFNLRH,transcriptional activation domain activity,73300
MILYTWFFLRSPFFIFGILWVHGLVDRFLFCHLLVVYFCHLVNFFIHLKYANE,transcriptional activation domain activity,55700
DKEKMEDGLIRVRLYFFTKLAGKPFYPTLLWSCLHSLTLKRLVALLRKSQLSA,transcriptional activation domain activity,68900
MIASSPGGILCGILLFLLFFLLPCDLPLPFVSCFFSLFSPFLMFLFFLPYFFS,transcriptional activation domain activity,40700
DSSAETGPGEDPSLVLPGLHMTLMRRFALKSKDRDRVSVEILGLLIRVLGVLG,transcriptional activation domain activity,59800
LALCQLKFWAIFSSIKHVNGLLKHSYPFDRSNFNVLVKSLIRGMFYKFQERQD,transcriptional activation domain activity,40100
MTTLYISFLFFLFCASFTFCTIFFFFFFFFTQWLYSSPLHLSLSLSLLFLFLI,transcriptional activation domain activity,65100
GYLHHILKLFDCAFGISYPQLHHVLEVRTRALLLAGLNLTFVLDGPLPMWKAA,transcriptional activation domain activity,54900
FYAMVHWYKIFQSGHSIVRIFLLLIEFLYNLISLVFSWFSLANFYLCYYFLYH,transcriptional activation domain activity,49600
DSSSSNDSDSGADDGAARPVRRSRARRKHKHNHEHDGNGGEGDAKDKARKPSP,transcriptional activation domain activity,28400
MILHSSYLPLGVPPFSIYYILHTLGHSINKITKLLLSNLILRFLNCCTQLIVR,transcriptional activation domain activity,53400
TGAGLFFFFHLFLCVWGIEILLVALDFPFFFFWFPYCAWAVSVRLGFGMIPKI,transcriptional activation domain activity,66900
MAITHAALPPMCRISLIRVWIETMLYGFNCVMYGLCMFIPVEGRLLLCWMLIV,transcriptional activation domain activity,50700
LMVDEPFEHRLFFLLLFQEGNVCQAQSFQLSGFECMCMVSSQFFFLVWVLYFM,transcriptional activation domain activity,45600
FFHVTVRVASQGCGLAFGIHGFENTDVFLAYLILGAEGYFTLVLCTFRFLVSW,transcriptional activation domain activity,66200
GGETEGESPEAPVPGGETPSEGGETETPSEGGETEGESPETPVPGGETPSEGG,transcriptional activation domain activity,16800
WMIWFRVGFACIFSSCVFLRVYGLYRIFIQRKPFTRYSFYVPFTIFTVCVFIF,transcriptional activation domain activity,69400
LFCALMPIRFYTYFKQSFQYYLADLCYYVNLLLLIFLWVLPTSCSLFISVFSL,transcriptional activation domain activity,78400
KQYCVRPNSGRIEPGGEVDVQILLQAMKEDPPADAKCRDKFLVQSVLVTADKE,transcriptional activation domain activity,50100
IRSWGDAVLAHSPLFDHVDGDAACPCSRCCSGVIAWSFWERVIRIVPMHLFSA,transcriptional activation domain activity,64500
ASSTAAASAASSAAAAKGGNNNAGKGAAAAKGGAAAAKGGAAAGGAAAAKGGA,transcriptional activation domain activity,24400
GFVGENSASASVVEVLLRTGGFSTRSLRRRLLETFQLVLEVTHSLAFIKPGGK,transcriptional activation domain activity,53300
VLHESCGSPVFLLFSCFILLSLWRIVGRISLSILLVLRSLFCCYFPSLLFWLW,transcriptional activation domain activity,36900
AINTAKAEIDGVREIMTENIERVLERGEHMSVLVDKTGRLGENARDFRVRSRT,transcriptional activation domain activity,29100
LWSHSILILACLIPYLVLRCSTYYCYQAISYIDSNDLAWSNVSIRFDVAMLVV,transcriptional activation domain activity,69200
MSGVGKLYRMGCWHGSHLPFIYFGHFILPFLLCLRPILSSVFFIYFFHLLCFF,transcriptional activation domain activity,47000
KARQDKEPAMTQKDLATKINEKPSVINDYESGRAIPNQQVLGKLERALGVKLR,transcriptional activation domain activity,40000
MSEREREHRGGRQDRLTGRSRSRSVRRHEKGDKGADDGRQARERHRSRSPARK,transcriptional activation domain activity,27400
AVVILGDLHPRGYNSNWFLMYYTGWLTFIFFITLLWALANLAWLRYTARVLPC,transcriptional activation domain activity,29300
EKKVKTPKSPKKEKKKEEPAAAPAAAAEEPAKEEAAAPAEAAVAPTEEPAKVE,transcriptional activation domain activity,42200
RDDGDDDDGDDHDEEREDGGTRGEGRRRGEKGGREGEAARAEVHEASAEAEAG,transcriptional activation domain activity,16300
INSTVHNLCELVLLPELFGFCCFSMRFFVFIDLLGTLILPATVVYLLYLIIVV,transcriptional activation domain activity,26100
RVPPNSSQKTGEPSSSSTKPVASSAVRNRVPPNSSQKTGEPSSSSTKPVASSA,transcriptional activation domain activity,52900
MALKAREELEEIYGMPVIYIPVFISCMHRINAVLLSLGNFLLISGAYLRSSFV,transcriptional activation domain activity,53200
EQFVLRDCGLLLWIDLRFLCHCARICLSACLDNYVYGVANITGKLVRFWGLGV,transcriptional activation domain activity,63400
RLQRDGQAGAGRGEARGGRGPVAGGQGAQHAGPVRRHRRQRRAGHLHGRKQHQ,transcriptional activation domain activity,32800
ALYLWTRHVGFANFVKLYFVPFMCVNHWIVMLTYLHHCDPTIPYFRRTQWSFL,transcriptional activation domain activity,30800
RLRAEGEEDAAAGNDQNKSGRKGGGVAMVGDGINDSPALAAASVGIALSTGSE,transcriptional activation domain activity,29300
RSRRAHPRTTSSRASPSCARSSRAPPRATSSSASTTSSTGTRSRTTTPSTSPR,transcriptional activation domain activity,18000
TAGAATNNKRNRLKVNGKVFTRLDVIGRGGSSRVYRVMAENSKIFALKRVSLD,transcriptional activation domain activity,35800
RGFVVMLEGLFICGGLVIQAFLNLGLSHATGGVTWRFSLAFSCFFDLVVFFSI,transcriptional activation domain activity,46600
MEHLVYHAPGVLPKMECRPPFRLCLLLLILFLFLFLCCQKVPLWIFACRFCCG,transcriptional activation domain activity,41200
SSLTSIESMGSVMDESGEEEEEDVIYEVKRARTHSMEVQQARLVSWEGAGMKL,transcriptional activation domain activity,42300
LLIFYFLFSCICIHFQQHLGLPLYLFNQDWYYAWQALAKQYFGLLLITMTKWW,transcriptional activation domain activity,53400
LETGSFQNYYQKMDAENADRVYSKGVKLIASGTLPSGIFNREELFEEDSFYKY,transcriptional activation domain activity,68400
RLIYGDYVSYHFLKMLHKVHDQISLAYIHHGLELVMWSCKVLVLLFKQLFESY,transcriptional activation domain activity,67900
VLLYTGLLKFFNLGVLTATLVEVCKRPWRIRMANGRVDRMKYFNLVFGIVWEC,transcriptional activation domain activity,58700
AVPCVVIVRNSLLIIILLPLELPLVMYVGSSNDCRGILLFYLFWFWSLRAIAV,transcriptional activation domain activity,68600
REFRVVEEEEEEEEEEEEEEEEEEEEDEEEGGLGGESVEEGGRRDKGKGVVKE,transcriptional activation domain activity,20100
RVYKRDPMLYLSSGWQYQGHFVYVTRLDVIHLSSWLRVFCFQIQHFSSVWWVL,transcriptional activation domain activity,59000
VLGNLLCAILFRNELWMRFLYLVFIYGLRGVSWAPLSIKYAATSILQHVGGIH,transcriptional activation domain activity,29200
ISYVSLEIRRTVFGLRLFAVAFYCTFFYWLMIRPNCKARFWCNFQPFSWIQAI,transcriptional activation domain activity,43100
